Columns and labels:
AddAB = AddAB (Bacillus subtilis, UniProt P23478;P23477 1-1232;1-1166); test: EMSA
AddANBN = AddANBN (Bacillus subtilis, UniProt P23478;P23477 1-1232;1-1166, D1172A;D961A); test: EMSA

B1: Bind15 (dsDNA)
DNA 1: CCGCCTCTTGGCCGATTCA
DNA 2: TCGGCCAAGAGGCGGTTTG
binding result (AddAB): binds

B2: Cy5Bind15 (dsDNA)
DNA 1: CCGCCTCTTGGCCGATTCA
DNA 2: TCGGCCAAGAGGCGGTTTG
binding result (AddANBN): binds

Reference: paper PMC3064778
